Measurements taken from article PMC8938331 (Molecular Metabolism, 2022).

Experiments:
[1] = target: T1, Recombinant mouse MD2 (Beijing ABIOCENTER) (mouse, UniProt Q9JHF9 19-160); assay: SPR
T1 sequence (looked up): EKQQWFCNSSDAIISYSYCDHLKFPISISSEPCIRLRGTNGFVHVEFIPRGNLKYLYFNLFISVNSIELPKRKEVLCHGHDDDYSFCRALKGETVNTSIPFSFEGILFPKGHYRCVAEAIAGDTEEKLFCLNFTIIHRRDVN

[2] = target: T2, Recombinant mouse TLR4 (R&D system) (mouse, UniProt Q9QUK6 26-638); assay: SPR
T2 sequence (looked up): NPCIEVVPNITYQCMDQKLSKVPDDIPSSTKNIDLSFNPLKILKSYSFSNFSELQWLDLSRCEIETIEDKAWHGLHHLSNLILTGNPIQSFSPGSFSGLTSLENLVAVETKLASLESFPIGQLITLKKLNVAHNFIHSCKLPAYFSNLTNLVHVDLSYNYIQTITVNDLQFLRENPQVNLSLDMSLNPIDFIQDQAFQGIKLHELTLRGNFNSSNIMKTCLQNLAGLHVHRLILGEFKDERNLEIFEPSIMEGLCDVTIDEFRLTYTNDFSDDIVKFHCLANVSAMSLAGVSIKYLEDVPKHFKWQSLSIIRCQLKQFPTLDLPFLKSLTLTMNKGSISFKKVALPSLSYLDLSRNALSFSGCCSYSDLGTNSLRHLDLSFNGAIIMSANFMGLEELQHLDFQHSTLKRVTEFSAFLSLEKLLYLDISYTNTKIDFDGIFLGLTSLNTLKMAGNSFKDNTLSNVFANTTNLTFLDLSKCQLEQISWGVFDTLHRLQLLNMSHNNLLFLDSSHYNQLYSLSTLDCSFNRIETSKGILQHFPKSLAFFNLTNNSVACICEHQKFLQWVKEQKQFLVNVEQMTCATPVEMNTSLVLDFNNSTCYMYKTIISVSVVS

Kd [1]: 123 nM
Kd [2]: 497 nM
B1: Mouse serum amyloid A1 (residues 19-122), recombinant (natural protein, UniProt P05366 19-122, looked up)
chain: GGFFSFVHEAFQGAGDMWRAYTDMKEANWKNSDKYFHARGNYDAAQRGPGGVWAAEKISDGREAFQEFFGRGHEDTIADQEANRHGRSGKDPNYYRPPGLPDKY
